Data published in article PMC12410710.

Target: CsrA (Salmonella Typhimurium) (UniProt P69916)
Assay: SEC; S75 Superdex column after Ni2+-NTA; SEC buffer 25 mM Tris, 150 mM NaCl, 10% glycerol, 1 mM DTT, pH 7.5; oligomeric state judged from the elution profile

Sequence of CsrA, P69916 1-61 (natural protein; other documents disagree on this pair) (P69916 whole entry): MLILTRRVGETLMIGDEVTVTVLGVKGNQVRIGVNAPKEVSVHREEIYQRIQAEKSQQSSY

Substance: CsrA, P69916 1-61 (natural protein; other documents disagree on this pair)
- stoichiometry N: 2
